Results on one molecule are retold here after paper PMC10360443 (Science immunology, 2023).

The target in the assay is HHLA2 (recombinant, SPR analyte) (human, UniProt Q9UM44 23-414). The assay is described as follows: SPR.

B1: KIR3DL3 (recombinant, coupled to the streptavidin sensor chip) (receptor)
chain: QDKPFLSAWPGTVVSEGQHVTLQCRSRLGFNEFSLSKEDGMPVPELYNRIFRNSFLMGPVTPAHAGTYRCCSSHPHSPTGWSAPSNPVVIMVTGVHRKPSLLAHPGPLVKSGETVILQCWSDVRFERFLLHREGITEDPLRLVGQLHDAGSQVNYSMGPMTPALAGTYRCFGSVTHLPYELSAPSDPLDIVVVGLYGKPSLSAQPGPTVQAGENVTLSCSSRSLFDIYHLSREAEAGELRLTAVLRVNGTFQANFPLGPVTHGGNYRCFGSFRALPHAWSDPSDPLPVSVTGNSRHL
Regarding B1, the Kd worked out at 48.9 µM.
